Measured values from doi:10.1101/2024.06.27.600973.

Molecular target: NY-ESO-1 peptide on HLA-A*02:01 (human)
Assay: data from [38–40]

- Kd: 10 µM
Substance: 1G4
